Measurements as given in patent US20240358813A1.
Where two headings read alike, the source gives them in different places.

Experiments:
[1] = biological target: gp42 wild-type (1-223) (Epstein-Barr virus) (UniProt P03205); test: flow cytometry, stable CHO cells kept in 10 µg/ml puromycin, mAb at 1:200, goat anti-mouse IgG Alexa Fluor 488
[2] = biological target: gp350-F: EBV gp350 (1-864) ectodomain fused to the Newcastle disease virus fusion protein (NDV-F) tr (Epstein-Barr virus; Newcastle disease virus) (UniProt P03200)
Chain of UniProt P03200 (P03200 1-864): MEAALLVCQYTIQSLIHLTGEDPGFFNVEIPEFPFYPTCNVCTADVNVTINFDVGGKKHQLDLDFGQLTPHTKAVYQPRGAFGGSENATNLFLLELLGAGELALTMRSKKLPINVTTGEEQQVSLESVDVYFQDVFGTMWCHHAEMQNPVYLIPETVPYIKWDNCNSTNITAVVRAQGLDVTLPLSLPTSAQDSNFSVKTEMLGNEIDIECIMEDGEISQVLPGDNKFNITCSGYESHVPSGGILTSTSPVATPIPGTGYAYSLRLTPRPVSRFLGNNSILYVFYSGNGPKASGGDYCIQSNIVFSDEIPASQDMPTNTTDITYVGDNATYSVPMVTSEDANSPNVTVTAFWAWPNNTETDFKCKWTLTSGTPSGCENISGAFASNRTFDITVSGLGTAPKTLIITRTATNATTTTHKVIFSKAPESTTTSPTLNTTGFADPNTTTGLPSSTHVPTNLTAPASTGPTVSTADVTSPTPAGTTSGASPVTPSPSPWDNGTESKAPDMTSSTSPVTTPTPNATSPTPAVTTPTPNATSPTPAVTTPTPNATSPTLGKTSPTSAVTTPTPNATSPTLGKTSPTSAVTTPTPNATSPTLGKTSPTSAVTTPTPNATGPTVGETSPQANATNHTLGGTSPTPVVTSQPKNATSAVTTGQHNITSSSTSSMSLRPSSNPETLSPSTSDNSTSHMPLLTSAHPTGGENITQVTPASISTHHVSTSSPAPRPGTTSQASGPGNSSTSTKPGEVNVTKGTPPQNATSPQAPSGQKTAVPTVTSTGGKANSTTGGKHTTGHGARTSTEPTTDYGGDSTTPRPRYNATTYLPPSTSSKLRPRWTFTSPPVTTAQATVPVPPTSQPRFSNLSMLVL

[3] = biological target: gp350-F: EBV gp350 (1-864) ectodomain fused to the Newcastle disease virus fusion protein (NDV-F) tr (Epstein-Barr virus; Newcastle disease virus) (UniProt P03200); remark: listed apart in the source
[4] = biological target: gp350-F: EBV gp350 (1-864) ectodomain fused to the Newcastle disease virus fusion protein (NDV-F) tr (Epstein-Barr virus; Newcastle disease virus) (UniProt P03200); test: flow cytometry, […], mAb at 1:200, […]

Chain of UniProt P03205 (P03205 whole entry, the tested form may be a part): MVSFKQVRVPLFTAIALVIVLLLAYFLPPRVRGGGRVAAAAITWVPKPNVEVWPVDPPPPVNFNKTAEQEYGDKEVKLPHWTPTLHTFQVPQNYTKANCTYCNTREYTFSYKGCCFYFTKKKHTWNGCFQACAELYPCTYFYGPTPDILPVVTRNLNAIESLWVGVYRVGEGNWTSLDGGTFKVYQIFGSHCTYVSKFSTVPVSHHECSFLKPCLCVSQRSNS

Substance: anti-gp42 mAb (F-2-1) (antibody)
- percent positive cells [1]: > 90%

Substance: anti-gp350 mAb 2L10 (antibody)
- percent positive cells [2]: > 90%

Substance: anti-gp350 monoclonal antibody (mAb) 72A1
- percent positive cells [3]: 95%
- percent positive cells [4]: > 90%
